Results: publication PMC10341545, “Structural and Biochemical Investigation of Selected Pathogenic Mutants of the Human Dihydrolipoamide Dehydrogenase” (International Journal of Molecular Sciences, 2023)

B1: I318T-hLADH (enzyme, human, UniProt P09622 36-509, looked up)
chain: ADQPIDADVTVIGSGPGGYVAAIKAAQLGFKTVCIEKNETLGGTCLNVGCIPSKALLNNSHYYHMAHGKDFASRGIEMSEVRLNLDKMMEQKSTAVKALTGGIAHLFKQNKVVHVNGYGKITGKNQVTATKADGGTQVIDTKNILIATGSEVTPFPGITIDEDTIVSSTGALSLKKVPEKMVVIGAGVIGVELGSVWQRLGADVTAVEFLGHVGGVGIDMEISKNFQRILQKQGFKFKLNTKVTGATKKSDGKIDVSIEAASGGKAEVITCDVLLVCIGRRPFTKNLGLEELGIELDPRGRIPVNTRFQTKIPNIYATGDVVAGPMLAHKAEDEGIICVEGMAGGAVHIDYNCVPSVIYTHPEVAWVGKSEEQLKEEGIEYKVGKFPFAANSRAKTNADTDGMVKILGQKSTDRVLGAHILGPGAGEMVNEAALALEYGASCEDIARVCHAHPTLSEAFREANLAASFGKSINF
notes: Dihydrolipoamide dehydrogenase, human, pathogenic variant I318T; Clinically reported disease-causing variant; mutation verified by MS
B2: I358T-hLADH (enzyme, human, UniProt P09622 36-509, looked up)
chain: ADQPIDADVTVIGSGPGGYVAAIKAAQLGFKTVCIEKNETLGGTCLNVGCIPSKALLNNSHYYHMAHGKDFASRGIEMSEVRLNLDKMMEQKSTAVKALTGGIAHLFKQNKVVHVNGYGKITGKNQVTATKADGGTQVIDTKNILIATGSEVTPFPGITIDEDTIVSSTGALSLKKVPEKMVVIGAGVIGVELGSVWQRLGADVTAVEFLGHVGGVGIDMEISKNFQRILQKQGFKFKLNTKVTGATKKSDGKIDVSIEAASGGKAEVITCDVLLVCIGRRPFTKNLGLEELGIELDPRGRIPVNTRFQTKIPNIYAIGDVVAGPMLAHKAEDEGIICVEGMAGGAVHIDYNCVPSVTYTHPEVAWVGKSEEQLKEEGIEYKVGKFPFAANSRAKTNADTDGMVKILGQKSTDRVLGAHILGPGAGEMVNEAALALEYGASCEDIARVCHAHPTLSEAFREANLAASFGKSINF
notes: Dihydrolipoamide dehydrogenase, human, pathogenic variant I358T; Clinically reported disease-causing variant; mutation verified by MS
B3: K37E-hLADH (enzyme, human, UniProt P09622 36-509, looked up)
chain: ADQPIDADVTVIGSGPGGYVAAIKAAQLGFKTVCIEENETLGGTCLNVGCIPSKALLNNSHYYHMAHGKDFASRGIEMSEVRLNLDKMMEQKSTAVKALTGGIAHLFKQNKVVHVNGYGKITGKNQVTATKADGGTQVIDTKNILIATGSEVTPFPGITIDEDTIVSSTGALSLKKVPEKMVVIGAGVIGVELGSVWQRLGADVTAVEFLGHVGGVGIDMEISKNFQRILQKQGFKFKLNTKVTGATKKSDGKIDVSIEAASGGKAEVITCDVLLVCIGRRPFTKNLGLEELGIELDPRGRIPVNTRFQTKIPNIYAIGDVVAGPMLAHKAEDEGIICVEGMAGGAVHIDYNCVPSVIYTHPEVAWVGKSEEQLKEEGIEYKVGKFPFAANSRAKTNADTDGMVKILGQKSTDRVLGAHILGPGAGEMVNEAALALEYGASCEDIARVCHAHPTLSEAFREANLAASFGKSINF
notes: Dihydrolipoamide dehydrogenase, human, pathogenic variant K37E; Clinically reported disease-causing variant
B4: R447G-hLADH (enzyme, human, UniProt P09622 36-509, looked up)
chain: ADQPIDADVTVIGSGPGGYVAAIKAAQLGFKTVCIEKNETLGGTCLNVGCIPSKALLNNSHYYHMAHGKDFASRGIEMSEVRLNLDKMMEQKSTAVKALTGGIAHLFKQNKVVHVNGYGKITGKNQVTATKADGGTQVIDTKNILIATGSEVTPFPGITIDEDTIVSSTGALSLKKVPEKMVVIGAGVIGVELGSVWQRLGADVTAVEFLGHVGGVGIDMEISKNFQRILQKQGFKFKLNTKVTGATKKSDGKIDVSIEAASGGKAEVITCDVLLVCIGRRPFTKNLGLEELGIELDPRGRIPVNTRFQTKIPNIYAIGDVVAGPMLAHKAEDEGIICVEGMAGGAVHIDYNCVPSVIYTHPEVAWVGKSEEQLKEEGIEYKVGKFPFAANSRAKTNADTDGMVKILGQKSTDRVLGAHILGPGAGEMVNEAALALEYGASCEDIAGVCHAHPTLSEAFREANLAASFGKSINF
notes: Dihydrolipoamide dehydrogenase, human, pathogenic variant R447G; Clinically reported disease-causing variant
B5: G194C-hLADH (enzyme, human, UniProt P09622 36-509, looked up)
chain: ADQPIDADVTVIGSGPGGYVAAIKAAQLGFKTVCIEKNETLGGTCLNVGCIPSKALLNNSHYYHMAHGKDFASRGIEMSEVRLNLDKMMEQKSTAVKALTGGIAHLFKQNKVVHVNGYGKITGKNQVTATKADGGTQVIDTKNILIATGSEVTPFPGITIDEDTIVSSTGALSLKKVPEKMVVIGAGVIGVELCSVWQRLGADVTAVEFLGHVGGVGIDMEISKNFQRILQKQGFKFKLNTKVTGATKKSDGKIDVSIEAASGGKAEVITCDVLLVCIGRRPFTKNLGLEELGIELDPRGRIPVNTRFQTKIPNIYAIGDVVAGPMLAHKAEDEGIICVEGMAGGAVHIDYNCVPSVIYTHPEVAWVGKSEEQLKEEGIEYKVGKFPFAANSRAKTNADTDGMVKILGQKSTDRVLGAHILGPGAGEMVNEAALALEYGASCEDIARVCHAHPTLSEAFREANLAASFGKSINF
notes: Dihydrolipoamide dehydrogenase, human, pathogenic variant G194C; Clinically reported disease-causing variant
B6: G426E-hLADH (enzyme, human, UniProt P09622 36-509, looked up)
chain: ADQPIDADVTVIGSGPGGYVAAIKAAQLGFKTVCIEKNETLGGTCLNVGCIPSKALLNNSHYYHMAHGKDFASRGIEMSEVRLNLDKMMEQKSTAVKALTGGIAHLFKQNKVVHVNGYGKITGKNQVTATKADGGTQVIDTKNILIATGSEVTPFPGITIDEDTIVSSTGALSLKKVPEKMVVIGAGVIGVELGSVWQRLGADVTAVEFLGHVGGVGIDMEISKNFQRILQKQGFKFKLNTKVTGATKKSDGKIDVSIEAASGGKAEVITCDVLLVCIGRRPFTKNLGLEELGIELDPRGRIPVNTRFQTKIPNIYAIGDVVAGPMLAHKAEDEGIICVEGMAGGAVHIDYNCVPSVIYTHPEVAWVGKSEEQLKEEGIEYKVGKFPFAANSRAKTNADTDGMVKILGQKSTDRVLGAHILGPGAEEMVNEAALALEYGASCEDIARVCHAHPTLSEAFREANLAASFGKSINF
notes: Dihydrolipoamide dehydrogenase, human, pathogenic variant G426E; Clinically reported disease-causing variant
B7: I445M-hLADH (enzyme, human, UniProt P09622 36-509, looked up)
chain: ADQPIDADVTVIGSGPGGYVAAIKAAQLGFKTVCIEKNETLGGTCLNVGCIPSKALLNNSHYYHMAHGKDFASRGIEMSEVRLNLDKMMEQKSTAVKALTGGIAHLFKQNKVVHVNGYGKITGKNQVTATKADGGTQVIDTKNILIATGSEVTPFPGITIDEDTIVSSTGALSLKKVPEKMVVIGAGVIGVELGSVWQRLGADVTAVEFLGHVGGVGIDMEISKNFQRILQKQGFKFKLNTKVTGATKKSDGKIDVSIEAASGGKAEVITCDVLLVCIGRRPFTKNLGLEELGIELDPRGRIPVNTRFQTKIPNIYAIGDVVAGPMLAHKAEDEGIICVEGMAGGAVHIDYNCVPSVIYTHPEVAWVGKSEEQLKEEGIEYKVGKFPFAANSRAKTNADTDGMVKILGQKSTDRVLGAHILGPGAGEMVNEAALALEYGASCEDMARVCHAHPTLSEAFREANLAASFGKSINF
notes: Dihydrolipoamide dehydrogenase, human, pathogenic variant I445M; Clinically reported disease-causing variant
B8: I12T-hLADH (enzyme, human, UniProt P09622 36-509, looked up)
chain: ADQPIDADVTVTGSGPGGYVAAIKAAQLGFKTVCIEKNETLGGTCLNVGCIPSKALLNNSHYYHMAHGKDFASRGIEMSEVRLNLDKMMEQKSTAVKALTGGIAHLFKQNKVVHVNGYGKITGKNQVTATKADGGTQVIDTKNILIATGSEVTPFPGITIDEDTIVSSTGALSLKKVPEKMVVIGAGVIGVELGSVWQRLGADVTAVEFLGHVGGVGIDMEISKNFQRILQKQGFKFKLNTKVTGATKKSDGKIDVSIEAASGGKAEVITCDVLLVCIGRRPFTKNLGLEELGIELDPRGRIPVNTRFQTKIPNIYAIGDVVAGPMLAHKAEDEGIICVEGMAGGAVHIDYNCVPSVIYTHPEVAWVGKSEEQLKEEGIEYKVGKFPFAANSRAKTNADTDGMVKILGQKSTDRVLGAHILGPGAGEMVNEAALALEYGASCEDIARVCHAHPTLSEAFREANLAASFGKSINF
notes: Dihydrolipoamide dehydrogenase, human, pathogenic variant I12T; Also expressed with an N-terminal Twin-Strep-tag to increase the yield; source: very low-expressing, eluted with contaminating proteins

Biological target: the molecule itself
Experiment: crystal structure; sitting drop; 0.2 M MgCl2, PEG 3350, 0.1 M Bis-Tris pH 6.7; space group C 1 2 1; two monomers (the homodimer) in the asymmetric unit

Row | Protein | binding result
1 | B1 | binds
2 | B2 | binds

Biological target: the molecule itself
Experiment: SEC; calibrated size-exclusion chromatography (cSEC); HiPrep 16/60 Sephacryl S-200 HR, 4 °C, 150 mM ammonium acetate, pH 6.80, 0.5 mL/min; 40–780 μg protein loaded; dimer to monomers

Row | Protein | binding result
3 | B3 | binds
4 | B4 | binds
5 | B5 | binds
6 | B6 | binds
7 | B7 | binds
8 | B8 | binds
